# Measurements from article doi:10.1101/2020.08.06.226779 (bioRxiv, 2020).
# B1: recombinant BCAS0292 (natural protein)
# chain: MSGVRCDGLAIVDAVTLLSAYPDASRDADAPTVIDGRHIYVLRPGDAGQVGHNDNRLFAGLSPGDQLHLRETALALRAEVTVLFIRFALKDAGIVAPIEAEIRDAATPVPDGDDLLHPSCRPMKDHFWRSEVLAPGITTCTADFAVLDRDGAVSGYFRWETAIEIAGSRPDTKQPGVEP
# Target: the molecule itself
# Assay: SEC-MALS
protein,measurement,value
B1,stoichiometry N,2
